Results reported in patent US6200577A, “Anti-herpesviral agents and assays therefor” (priority 1996, dated 2001).

Key:
gB/VP22trunc binding = target: T1, gB/VP22trunc binding (Human herpesvirus 1, UniProt P10211); assay: Far Western analysis of peptide inhibition of GST-gB binding to VP22trunc; design: species or system HSV-1; settings: peptide 250 μg/ml co-incubated with GST-gB 1.2 μg/ml; FIG. 12B
T1 construct: linked residues 798 to 904 of gB to the glutathione-S-transferase (GST) protein expressed by pGex2TNMCR; made in house; host or cells: GST-gB: E. coli DH5alpha; VP22trunc: E. coli BL21(DE3)
Procedure: (B) Inhibition of binding of GST-gB (final concentration 1.2 μg/ml)and each of the following peptides at a final concentration of 250 μg/ml: lane 1, no peptide; lane 2, peptide A; lane 3, peptide B; lane 4, peptide C; lane 5, peptide D; lane 6, peptide E; lane 7, peptide F; lane 8, peptide G; lane 9, peptide H; lane 10, peptide I; lane 11, peptide J. Bound GST-gB was detected with anti-GST antibody.
Following electrophoresis, proteins were electrotransferred to either Hybond or ProBlott (Applied Biosystems) membrane and the membrane was incubated in renaturation buffer (50 mM Tris-HCl, pH 8.0, 150 mM NaCl, 10% glycerol, 1 mM DTT) at 4° C. for 5-6 hours.
For membranes probed with GST-gB, blocking was performed overnight in PBSA containing 1% non-fat dried milk and 0.05% Tween 20 at 4° C. Membranes were then washed twice in renaturation buffer (10 min/wash) prior to incubation with fusion protein (final concentration 0.5 μg/ml) in renaturation buffer containing 1% BSA. Incubation was again performed overnight at 4° C. Following washing with renaturation buffer (four times, 10 minutes/wash) and a brief rinse with blocking buffer, the membrane was incubated with anti-GST antibody in PBSA, 1% non-fat dried milk, 0.05% Tween 20 and 1% BSA for 1 hour at ambient temperature. After four washes with PBSA, 0.05% Tween 20 (10 minutes/wash), bound antibody was detected with secondary antibody (goat anti-rabbit IgG, whole molecule; Sigma) conjugated to Horse Radish Peroxidase (HRP) by incubating at room temperature for 45 minutes. Following four further washes with PBSA, 0.05% Tween 20, the secondary antibody was visualised by enhanced chemiluminescence.
Similar to the studies performed with inhibition of binding of VP16 to VP22, peptides A to J, which span residues 18 to 144 of VP22trunc, were used to examine whether gB binding could also be prevented (FIG. 12B).

VP16 = target: T2, VP16 (Human herpesvirus 1, UniProt P06492); assay: ELISA of direct binding of VP16 to plate-coated peptides; design: species or system HSV-1; settings: wells coated with peptide up to 500 μg/ml; VP16 1.6 μg/ml; FIG. 10
T2 construct: Plasmid pETVP16 was used to express full-length VP16 under the control of the T7 RNA polymerase promoter; made in house; host or cells: E. coli BL21(DE3)
Procedure: FIG. 10 Binding of VP16 to peptides. Microtitre plates were coated with 5-fold dilutions of peptides ranging from 500 μg/ml to 1 μg/ml and blocked with PBS/10% NCS. VP16 was then added to a final concentration of 1.6 μg/ml and detected with LP1. The legend for the peptides added is shown to the right of the graph.
Dilutions of proteins in PBS were coated overnight onto flat bottomed micro-titre plates (Dynatech) at 37° C. and then blocked with either 2% BSA or 10% new-born calf serum (NCS) in PBS for 1 hour at 37° C. Specific binding of a second protein to the plate-bound protein was performed for 1.5-2 hours at ambient temperature. a Excess secondary protein was removed by washing four times with PBS, 0.3% Tween 20. Bound protein was detected by incubation for 1.5-2 hours with LP1 antibody in PBS, 1% gelatin or PBS, 2% NCS. The bound antibody was detected by incubation for 1 hour at ambient temperature with anti-mouse antibody conjugated to HRP (1:500) and visualised with Smg/ml enzyme substrate 2,2'-azino-bis(3-ethylbenzthiazoline-6-sulphonic acid) (ABTS; Sigma) in citrate-phosphate buffer containing 6 μl hydrogen peroxide in a total volume of 20 ml. Optical densities were measured on a Titertek Multiscan PLUS instrument.
To examine whether VP16 could bind directly to the peptides, wells were coated with each peptide (A-J) at a range of concentrations from […] to 500 μg/ml and the plate was then blocked with […]. […] Nonetheless, the data for peptides D and E implicate direct binding of these peptides to VP16 as the mechanism for inhibiting its interaction with VP22. Peptide H also was active in experiments which prevented gB binding to VP22trunc [Section 4 (iii)] and thus also forms an aspect of the invention.

[1] = target: T3, VP16/VP22trunc interaction (Human herpesvirus 1, UniProt P06492); assay: Co-purification of VP16 with VP22trunc on Ni-NTA resin in presence of peptides; assay type: binding, HSV-1; settings: crude peptide at 2 mg/ml (about 1 mM), equal volume mixed with partially purified VP16 extract before VP22trunc
T3 construct: Plasmid pETVP16 was used to express full-length VP16 under the control of the T7 RNA polymerase promoter; made in house; host or cells: E. coli BL21(DE3)
Procedure: FIG. 4 Co-elution of VP16 with VP22trunc from Ni-NTA resin. Partially purified extract containing VP16 was incubated in the absence of (lane 14) or presence of […] of VP22trunc (lanes 3 to 13). In lanes 3 to 12, an equal volume of the individual peptides at 2 mg/ml was added to the extract prior to VP22trunc. Peptides added to each reaction were as follows: lane 3, peptide A; lane 4, peptide B; lane 5, peptide C; lane 6, peptide D; lane 7, peptide E; lane 8, peptide F; lane 9, peptide G; lane 10, peptide H; lane 11, peptide I; lane 12, peptide J; lane 13, no peptide. Lanes 3 to 14 show the polypeptides eluted from Ni-NTA resin. Other samples were as follows: lane 1, partially purified VP16 extract, lane 2, purified VP16; lane 15, purified VP22trunc. Samples were electrophoresed on a 12% polyacrylamide gel and the apparent molecular weights of VP16 (65 KDa) and VP22trunc (16 KDa) are shown.
Co-purification of VP16 with VP22trunc on Ni-NTA Resin. Purified VP22trunc and a partially purified extract containing VP16, both in 20 mM Tris-HCl, pH8.0, 250 mM NaCl, were mixed at 4° C. for 15 to 30 minutes on a rotator. 50 μl of equilibrated Ni-NTA resin was added to each mixture and incubation was continued at 40C for a further 15 to 30 minutes. Resin was pelleted at 800 g for 1 minute and the supernatant (non-bound fraction) was removed. Resin was washed sequentially with 0.5 ml of 20 mM Tris-HCl, pH 8.0, 250 mM NaCl, 5 mM imidazole (twice) and 0.5 ml of 20 mM Tris-HCl, pH 8.0, 250 mM NaCl, 60 mM imidazole (four times). Bound protein was eluted by addition of 50 μl of boiling mix (160 mM Tris-HCl, pH 6.7, 2% SDS, 700 mM β-mercaptoethanol, 10% glycerol, 0.002% bromophenol blue) followed by heating to 100° C. for 5 minutes. For peptide studies, peptides were dissolved in 20 mM Tris-HCl, pH8.0, 250 mM NaCl at a concentration of 2 mg/ml. Incubation of peptides with partially purified VP16 extracts was performed at ambient temperature for 2 hours prior to the addition of VP22trunc. Samples were electrophoresed on denaturing polyacrylamide gels.
Results presented in Section 2(i) had shown that VP16 co-elutes from Ni-NTA resin in the presence of VP22trunc and it was concluded that this indicated interaction between these polypeptides. The ability of synthetic peptides to inhibit this interaction was analysed by mixing them individually with the partially purified VP16 extract prior to addition of VP22trunc. From the intensity of the 65 KDa species in the crude extract (FIG. 4, lane 2), it was estimated that the concentration of VP16 was approximately […]. To ensure that experiments were performed in an excess of peptide, peptides were prepared at a concentration of 2 mg/ml (about 1 mM) and equal volumes of peptide and extract were mixed. This gave a relative molar ratio of VP16 to peptide of 1:300. However, it should be noted that certain peptides were not completely soluble (Table 1) and in those cases, the ratio would be reduced.

[2] = Solubility of synthetic peptides in buffer; assay type: physicochemical; settings: peptides dissolved in 20 mM Tris-HCl, pH 8.0, 250 mM NaCl; unpurified preparations
Procedure: Synthesis and Purification of Oligopeptides. Peptides were synthesised by continuous flow Fmoc chemistry (Atherton and Sheppard, 1989; McLean et al., 1991) and, where stated in the text, were purified by preparative reverse-phase HPLC (Owsianka et al., 1993). The Mr values of peptides were determined by fast atom bombardment mass spectrometry (M-Scan) and corresponded to the predicted values. Peptides were dissolved in 20 mM Tris-HCl, pH 8.0, 250 mM NaCl and centrifuged at 11,500 g for 1 minute prior to use. […] Precipitates were removed by centrifugation before use.

T3 sequence (P06492 whole entry): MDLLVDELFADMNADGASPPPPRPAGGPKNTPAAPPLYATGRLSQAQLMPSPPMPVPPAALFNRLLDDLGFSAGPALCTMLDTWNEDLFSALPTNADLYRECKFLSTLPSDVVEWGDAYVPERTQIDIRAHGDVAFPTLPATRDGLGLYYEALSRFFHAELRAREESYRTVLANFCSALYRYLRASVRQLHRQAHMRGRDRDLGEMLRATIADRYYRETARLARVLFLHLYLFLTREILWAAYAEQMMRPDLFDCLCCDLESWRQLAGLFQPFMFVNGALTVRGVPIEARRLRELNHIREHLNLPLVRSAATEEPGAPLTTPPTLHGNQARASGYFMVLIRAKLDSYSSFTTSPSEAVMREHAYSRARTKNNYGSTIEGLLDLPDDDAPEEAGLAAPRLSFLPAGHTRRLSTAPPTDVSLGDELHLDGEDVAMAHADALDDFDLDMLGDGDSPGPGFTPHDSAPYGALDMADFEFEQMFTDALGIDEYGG
T2 sequence (P06492 whole entry): as above
T1 sequence (P10211 798-904): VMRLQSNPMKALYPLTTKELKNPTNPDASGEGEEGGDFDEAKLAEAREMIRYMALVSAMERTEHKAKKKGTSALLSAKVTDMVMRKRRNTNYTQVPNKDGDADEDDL

ITTIRVTVCEGKNLLQRANE [Peptide H]
Inhibition of GST-gB binding to VP22trunc (Far Western) (gB/VP22trunc binding): completely inhibited binding of gB
Direct binding of VP16 to plate-coated peptide (ELISA) (VP16): evidence also for VP16 binding
Co-elution of VP16 with VP22trunc from Ni-NTA resin after incubation with peptide [1]: does not prevent interaction with VP22
Solubility [2]: soluble
